This note sets out measurements from IntAct's records for PubMed 19478065.

The chains are these.
B1: Chaperone protein IpgC (Shigella flexneri), P0A2U4 (parent)
chain: MSLNITENESISTAVIDAINSGATLKDINAIPDDMMDDIYSYAYDFYNKGRIEEAEVFFRFLCIYDFYNVDYIMGLAAIYQIKEQFQQAADLYAVAFALGKNDYTPVFHTGQCQLRLKAPLKAKECFELVIQHSNDEKLKIKAQSYLDAIQDIKE
partner: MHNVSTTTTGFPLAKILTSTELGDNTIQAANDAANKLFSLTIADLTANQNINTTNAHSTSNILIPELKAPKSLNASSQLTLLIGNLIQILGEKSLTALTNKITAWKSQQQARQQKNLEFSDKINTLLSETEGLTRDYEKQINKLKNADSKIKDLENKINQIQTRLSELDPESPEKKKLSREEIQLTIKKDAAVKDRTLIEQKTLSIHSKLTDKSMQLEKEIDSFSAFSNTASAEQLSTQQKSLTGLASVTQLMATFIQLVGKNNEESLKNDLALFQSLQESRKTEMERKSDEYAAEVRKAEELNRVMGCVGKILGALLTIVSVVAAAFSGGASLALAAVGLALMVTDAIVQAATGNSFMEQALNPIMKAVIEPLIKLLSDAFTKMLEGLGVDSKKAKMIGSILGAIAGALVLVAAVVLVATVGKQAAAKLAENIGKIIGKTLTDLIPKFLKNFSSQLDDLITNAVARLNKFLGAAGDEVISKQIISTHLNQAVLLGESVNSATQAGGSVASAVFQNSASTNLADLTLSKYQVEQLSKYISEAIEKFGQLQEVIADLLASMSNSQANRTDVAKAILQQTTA
B2: Type 3 secretion system translocon protein SctE (Shigella flexneri), P18011 (parent)
chain: B1 partner

Variants of B1 are the subject of the first test. The note with it: with scte_shifl sctE.
In the case of S41M;Y44G;G75Q;A78M, the “effect of a mutation on the interaction” value is “disrupting interaction strength”.

A further test covers variants of B2. Particulars: with ipgc_shifl ipgC.
Take MHNVSTTTTGFPLAKILTSTELGDNTIQAANDAANKLFSLTIADLTANQNINTTNAHSTSNILIPENKAPKSLNASSQLTLLIGNLIQILGEKSLTALTNKITAWKSQQQARQQKNLEFSDKINTLLSETEGLTRDYEKQINKLKNADSKIKDLENKINQIQTRLSELDPESPEKKKLSREEIQLTIKKDAAVKDRTLIEQKTLSIHSKLTDKSMQLEKEIDSFSAFSNTASAEQLSTQQKSLTGLASVTQLMATFIQLVGKNNEESLKNDLALFQSLQESRKTEMERKSDEYAAEVRKAEELNRVMGCVGKILGALLTIVSVVAAAFSGGASLALAAVGLALMVTDAIVQAATGNSFMEQALNPIMKAVIEPLIKLLSDAFTKMLEGLGVDSKKAKMIGSILGAIAGALVLVAAVVLVATVGKQAAAKLAENIGKIIGKTLTDLIPKFLKNFSSQLDDLITNAVARLNKFLGAAGDEVISKQIISTHLNQAVLLGESVNSATQAGGSVASAVFQNSASTNLADLTLSKYQVEQLSKYISEAIEKFGQLQEVIADLLASMSNSQANRTDVAKAILQQTTA [L67N]: the “effect of a mutation on the interaction” value is on record as “disrupting interaction strength”.
MHNVSTTTTGFPLAKILTSTELGDNTIQAANDAANKLFSLTIADLTANQNINTTNAHSTSNILIPELAAPKSLNASSQLTLLIGNLIQILGEKSLTALTNKITAWKSQQQARQQKNLEFSDKINTLLSETEGLTRDYEKQINKLKNADSKIKDLENKINQIQTRLSELDPESPEKKKLSREEIQLTIKKDAAVKDRTLIEQKTLSIHSKLTDKSMQLEKEIDSFSAFSNTASAEQLSTQQKSLTGLASVTQLMATFIQLVGKNNEESLKNDLALFQSLQESRKTEMERKSDEYAAEVRKAEELNRVMGCVGKILGALLTIVSVVAAAFSGGASLALAAVGLALMVTDAIVQAATGNSFMEQALNPIMKAVIEPLIKLLSDAFTKMLEGLGVDSKKAKMIGSILGAIAGALVLVAAVVLVATVGKQAAAKLAENIGKIIGKTLTDLIPKFLKNFSSQLDDLITNAVARLNKFLGAAGDEVISKQIISTHLNQAVLLGESVNSATQAGGSVASAVFQNSASTNLADLTLSKYQVEQLSKYISEAIEKFGQLQEVIADLLASMSNSQANRTDVAKAILQQTTA [K68A]: the “effect of a mutation on the interaction” value is listed as “decreasing interaction strength”.
MHNVSTTTTGFPLAKILTSTELGDNTIQAANDAANKLFSLTIADLTANQNINTTNAHSTSNILIPELKADKSLNASSQLTLLIGNLIQILGEKSLTALTNKITAWKSQQQARQQKNLEFSDKINTLLSETEGLTRDYEKQINKLKNADSKIKDLENKINQIQTRLSELDPESPEKKKLSREEIQLTIKKDAAVKDRTLIEQKTLSIHSKLTDKSMQLEKEIDSFSAFSNTASAEQLSTQQKSLTGLASVTQLMATFIQLVGKNNEESLKNDLALFQSLQESRKTEMERKSDEYAAEVRKAEELNRVMGCVGKILGALLTIVSVVAAAFSGGASLALAAVGLALMVTDAIVQAATGNSFMEQALNPIMKAVIEPLIKLLSDAFTKMLEGLGVDSKKAKMIGSILGAIAGALVLVAAVVLVATVGKQAAAKLAENIGKIIGKTLTDLIPKFLKNFSSQLDDLITNAVARLNKFLGAAGDEVISKQIISTHLNQAVLLGESVNSATQAGGSVASAVFQNSASTNLADLTLSKYQVEQLSKYISEAIEKFGQLQEVIADLLASMSNSQANRTDVAKAILQQTTA [P70D]: the “effect of a mutation on the interaction” value is recorded as “disrupting interaction strength”.
On the same count and under the same terms, under MHNVSTTTTGFPLAKILTSTELGDNTIQAANDAANKLFSLTIADLTANQNINTTNAHSTSNILIRELKAPKSLNASSQLTLLIGNLIQILGEKSLTALTNKITAWKSQQQARQQKNLEFSDKINTLLSETEGLTRDYEKQINKLKNADSKIKDLENKINQIQTRLSELDPESPEKKKLSREEIQLTIKKDAAVKDRTLIEQKTLSIHSKLTDKSMQLEKEIDSFSAFSNTASAEQLSTQQKSLTGLASVTQLMATFIQLVGKNNEESLKNDLALFQSLQESRKTEMERKSDEYAAEVRKAEELNRVMGCVGKILGALLTIVSVVAAAFSGGASLALAAVGLALMVTDAIVQAATGNSFMEQALNPIMKAVIEPLIKLLSDAFTKMLEGLGVDSKKAKMIGSILGAIAGALVLVAAVVLVATVGKQAAAKLAENIGKIIGKTLTDLIPKFLKNFSSQLDDLITNAVARLNKFLGAAGDEVISKQIISTHLNQAVLLGESVNSATQAGGSVASAVFQNSASTNLADLTLSKYQVEQLSKYISEAIEKFGQLQEVIADLLASMSNSQANRTDVAKAILQQTTA [P65R] stands “disrupting interaction strength”.
